# Tests used:
# [1] = biological target: T1, GRP receptor (Homo sapiens, UniProt P30550); assay: Calcium release assay in PC3 cells (Fluo-4NW); type: cell-based; parameters: host or cells: PC3 cells
# Method: In brief, PC3 cells were seeded (10,000 cells per well) in 96 well plates and cultured for 2 day at 37° C. and 5% CO2 in culture medium. At the day of the experiment, the cells were washed with assay buffer (1×HBSS, 20 mM HEPES) containing 2.5 mM probenecid, and then loaded with 100 μL/well Fluo-4NW dye in assay buffer containing 2.5 mM probenecid for 30 min at 37° C. and 5% CO2 and then for further 30 min at room temperature. […] Intracellular calcium mobilization was recorded in a kinetic for 60 sec at room temperature monitoring fluorescence emission at 520 nm (with λex=485 nm) in the presence of the analogues at the concentrations indicated. […] Baseline (F-baseline) measurements were taken for dye-loaded, untreated cells. […] All experiments were repeated at least three times in triplicate.
# [2] = biological target: T1, GRP receptor; assay: Immunofluorescence microscopy based internalization assay with HEK-GRPR cells; type: cell-based; parameters: expressed in transfected cells; host or cells: HEK293; conditions: for antagonism of bombesin-induced GRP receptor internalization: 10 nmol/L bombesin + 1 μmol/L analogue; for antagonism of bombesin-induced GRP receptor internalization / GRP receptor internalization, given alone: 30 min; for GRP receptor internalization, given alone: 1 μmol/L
# Method: Briefly, HEK-GRPR cells were grown on poly-D-lysine (20 μg/ml) (Sigma-Aldrich, St. Louis, Mo.) coated 35 mm four-well plates (Cellstar, Greiner Bio-One GmbH, Frickenhausen, Germany). […] The cells were imaged using a Leica DM RB immunofluorescence microscope and an Olympus DP10 camera.
# Following incubation with the peptides, the cells were processed for immunocytochemistry as described in above.
# [3] = biological target: T1, GRP receptor; assay: GRP receptor binding affinity by in vitro receptor autoradiography; parameters: host or cells: PC3 cells; conditions: read-out: BINDING IC50 (nM) mean ± SEM
# Method: The GRP receptor binding affinity of the various compounds was determined by in vitro receptor autoradiography on cryostat sections of either well characterized prostate carcinomas, or on sections from HEK-GRPR or PC3 cell pellets as described previously (Markwalder et al., Can. Res., 1999; 59, 1152-1159; Reubi et al., Eur. J. Nucl. Med., 2000; 27: 273-282; Reubi et al., Clin. Cancer Res. 2002; 8 1139-1146).
# [4] = tested on: LNCaP tumor
# [5] = tested on: PC-3 tumor
# [6] = tested on: PC-3 tumor; assay: Biodistribution in PC-3 tumor bearing nude mice
# Method: Eleven days after inoculation the mice were injected into the tail vein with 10 pmol of radiolabeled peptides (about 0.18 MBq), diluted in NaCl (0.1% bovine serum albumin, pH 7.4, total injected volume=100 μL).
# [7] = biological target: T1, GRP receptor; conditions: cited from earlier work
# [8] = 100 μg bombesin or non-radioactive Compound 2
# T1 sequence (P30550 whole entry): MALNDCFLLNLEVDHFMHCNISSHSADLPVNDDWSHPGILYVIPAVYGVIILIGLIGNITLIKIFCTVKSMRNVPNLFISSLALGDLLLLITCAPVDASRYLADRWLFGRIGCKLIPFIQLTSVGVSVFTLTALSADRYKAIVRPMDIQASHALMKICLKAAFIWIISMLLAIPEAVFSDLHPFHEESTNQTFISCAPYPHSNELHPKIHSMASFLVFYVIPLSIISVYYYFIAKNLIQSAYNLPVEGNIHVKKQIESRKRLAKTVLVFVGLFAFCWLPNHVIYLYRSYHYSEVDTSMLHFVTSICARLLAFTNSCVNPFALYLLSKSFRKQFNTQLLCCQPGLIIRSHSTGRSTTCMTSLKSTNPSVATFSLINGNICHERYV
molecule,measurement,setting,value
"CC(C)C[C@H](NC(=O)C[C@H](O)[C@H](CC(C)C)NC(=O)[C@H](Cc1c[nH]cn1)NC(=O)CNC(=O)[C@@H](NC(=O)[C@H](C)NC(=O)[C@H](Cc1c[nH]c2ccccc12)NC(=O)[C@H](CCC(N)=O)NC(=O)[C@@H](Cc1ccccc1)NC(=O)c1ccc(NC(=O)CNC(=O)CN2CCN(CC(=O)O)CCN(CC(=O)O)CCN(CC(=O)O)CC2)cc1)C(C)C)C(N)=O [Compound 1, DOTA-Gly-aminobenzoyl-D-Phe-Gln-Trp-Ala-Val-Gly-His-Sta-Leu-NH2]","effect on calcium release, tested alone",[1]; 1 μmol/L and 10 μmol/L,no effect on calcium release
same,antagonism of bombesin-induced GRP receptor internalization,[2],efficiently antagonized
same,"GRP receptor internalization, given alone",[2],no effect on GRP receptor internalization
same,IC50,[3],30 ± 4.5 nM
CC(C)C[C@H](NC(=O)C[C@H](O)[C@H](CC(C)C)NC(=O)[C@H](Cc1c[nH]cn1)NC(=O)CNC(=O)[C@@H](NC(=O)[C@H](C)NC(=O)[C@H](Cc1c[nH]c2ccccc12)NC(=O)[C@H](CCC(N)=O)NC(=O)[C@@H](Cc1ccccc1)NC(=O)c1ccc(NC(=O)CNC(=O)CN2CCN(CC(=O)O)CCN(CC(=O)O)CCN(CC(=O)O)CC2)cc1)C(C)C)C(N)=O [^115In-1],Signaling Ca++ mobilization,[1],ANTAG/no agonist effect
same,Receptor internalization,[2]; HEK-GRPR cells,Antag/no agonist
same,IC50,[3],16 ± 5.3 nM
"[D-Phe^6, Leu-NHEt^13, des-Met^14]-bombesin(6-14) [GRPR-ANTAG, reference compound]",antagonism of bombesin-induced GRP receptor internalization,[2],efficiently antagonized
same,"GRP receptor internalization, given alone",[2],no effect on GRP receptor internalization
^68Ga-DOTA-4-amino-1-carboxymethyl-piperidine-D-Phe-Gln-Trp-Ala-Val-Gly-His-Sta-Leu-NH2 [^68Ga-COMPOUND 2],blocking of tumor contrast,[4]; [8],effectively blocked
same,tumor contrast,[4]; 1 h after injection of 10 MBq,High tumor-contrast
same,blocking of tumor contrast,[5]; [8],effectively blocked
same,tumor contrast,[5]; 1 h after injection of 10 MBq,High tumor-contrast
"^111In-DOTA-(15-amino-4,7,10,13-tetraoxapentadecanoic acid)-(4-amino-1-carboxy-methyl-piperidine)-D-Phe-Gln-Trp-Ala-Val-Gly-His-Sta-Leu-NH2 [^111In-Compound 5]","biodistribution, adrenal",[6]; 1 h,3.63 ± 0.53
same,"biodistribution, blood",[6]; 1 h,0.75 ± 0.21
same,"biodistribution, bone",[6]; 1 h,0.34 ± 0.04
same,"biodistribution, heart",[6]; 1 h,0.28 ± 0.06
same,"biodistribution, intestine",[6]; 1 h,2.39 ± 0.42
same,"biodistribution, kidney",[6]; 1 h,5.08 ± 0.72
same,"biodistribution, liver",[6]; 1 h,0.40 ± 0.09
same,"biodistribution, lung",[6]; 1 h,0.62 ± 0.15
same,"biodistribution, muscle",[6]; 1 h,0.19 ± 0.07
same,"biodistribution, pancreas",[6]; 1 h,26.83 ± 4.34
same,"biodistribution, pituitary",[6]; 1 h,9.02 ± 0.99
same,"biodistribution, spleen",[6]; 1 h,0.80 ± 0.28
same,"biodistribution, stomach",[6]; 1 h,3.92 ± 1.26
same,"biodistribution, tumor",[6]; 1 h,10.27 ± 0.36
same,tumor:blood,[6]; 1 h,13.73
same,tumor:bone,[6]; 1 h,29.93
same,tumor:kidney,[6]; 1 h,2.02
same,tumor:muscle,[6]; 1 h,53.65
same,tumor:pancreas,[6]; 1 h,0.38
same,"biodistribution, adrenal",[6]; 4 h,0.68 ± 0.31
same,"biodistribution, blood",[6]; 4 h,0.03 ± 0.01
same,"biodistribution, bone",[6]; 4 h,0.08 ± 0.02
same,"biodistribution, heart",[6]; 4 h,0.03 ± 0.01
same,"biodistribution, intestine",[6]; 4 h,0.17 ± 0.10
same,"biodistribution, kidney",[6]; 4 h,2.04 ± 0.15
same,"biodistribution, liver",[6]; 4 h,0.15 ± 0.05
same,"biodistribution, lung",[6]; 4 h,0.15 ± 0.19
same,"biodistribution, muscle",[6]; 4 h,0.02 ± 0.00
same,"biodistribution, pancreas",[6]; 4 h,1.36 ± 0.81
same,"biodistribution, pituitary",[6]; 4 h,0.38 ± 0.16
same,"biodistribution, spleen",[6]; 4 h,0.09 ± 0.03
same,"biodistribution, stomach",[6]; 4 h,0.87 ± 0.58
same,"biodistribution, tumor",[6]; 4 h,9.35 ± 0.73
same,tumor:blood,[6]; 4 h,319.66
same,tumor:bone,[6]; 4 h,124.55
same,tumor:kidney,[6]; 4 h,4.59
same,tumor:muscle,[6]; 4 h,475.17
same,tumor:pancreas,[6]; 4 h,6.90
same,"biodistribution, adrenal","[6]; 4 h blocking, 2000 fold",0.07 ± 0.02
same,"biodistribution, blood","[6]; 4 h blocking, 2000 fold",0.02 ± 0.00
same,"biodistribution, bone","[6]; 4 h blocking, 2000 fold",0.03 ± 0.03
same,"biodistribution, heart","[6]; 4 h blocking, 2000 fold",0.02 ± 0.00
same,"biodistribution, intestine","[6]; 4 h blocking, 2000 fold",0.03 ± 0.01
same,"biodistribution, kidney","[6]; 4 h blocking, 2000 fold",1.76 ± 0.36
same,"biodistribution, liver","[6]; 4 h blocking, 2000 fold",0.14 ± 0.01
same,"biodistribution, lung","[6]; 4 h blocking, 2000 fold",0.05 ± 0.01
same,"biodistribution, muscle","[6]; 4 h blocking, 2000 fold",0.01 ± 0.00
same,"biodistribution, pancreas","[6]; 4 h blocking, 2000 fold",0.06 ± 0.02
same,"biodistribution, pituitary","[6]; 4 h blocking, 2000 fold",0.23 ± 0.14
same,"biodistribution, spleen","[6]; 4 h blocking, 2000 fold",0.06 ± 0.01
same,"biodistribution, stomach","[6]; 4 h blocking, 2000 fold",0.06 ± 0.01
same,"biodistribution, tumor","[6]; 4 h blocking, 2000 fold",0.61 ± 0.07
same,"biodistribution, adrenal",[6]; 24 h,0.62 ± 0.16
same,"biodistribution, blood",[6]; 24 h,0.01 ± 0.00
same,"biodistribution, bone",[6]; 24 h,0.08 ± 0.02
same,"biodistribution, heart",[6]; 24 h,0.02 ± 0.00
same,"biodistribution, intestine",[6]; 24 h,0.05 ± 0.02
same,"biodistribution, kidney",[6]; 24 h,1.37 ± 0.22
same,"biodistribution, liver",[6]; 24 h,0.11 ± 0.02
same,"biodistribution, lung",[6]; 24 h,0.51 ± 0.73
same,"biodistribution, muscle",[6]; 24 h,0.02 ± 0.00
same,"biodistribution, pancreas",[6]; 24 h,0.33 ± 0.05
same,"biodistribution, pituitary",[6]; 24 h,0.46 ± 0.52
same,"biodistribution, spleen",[6]; 24 h,0.07 ± 0.01
same,"biodistribution, stomach",[6]; 24 h,0.05 ± 0.01
same,"biodistribution, tumor",[6]; 24 h,6.33 ± 0.76
same,tumor:blood,[6]; 24 h,1155.51
same,tumor:bone,[6]; 24 h,76.65
same,tumor:kidney,[6]; 24 h,4.62
same,tumor:muscle,[6]; 24 h,364.92
same,tumor:pancreas,[6]; 24 h,19.16
^177Lu-DOTA-Gly-4-aminobenzoyl-Gln-Trp-Ala-Val-Gly-His-Leu-Met-NH2 [Compound L70],agonist/antagonist behaviour,[7],behaved as an agonist
